Assay [1] addresses T1, human FcγRIIb extracellular domain with C-terminal His-tag (human, UniProt P31994 43-217).
T1 construct: extracellular domain; also called hFcγR IIb
T1 sequence (looked up): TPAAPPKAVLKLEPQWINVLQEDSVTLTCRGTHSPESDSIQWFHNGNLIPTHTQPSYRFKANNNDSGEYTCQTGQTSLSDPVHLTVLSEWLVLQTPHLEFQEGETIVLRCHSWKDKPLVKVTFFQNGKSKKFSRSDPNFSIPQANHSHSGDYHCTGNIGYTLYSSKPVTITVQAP
The assay can be described thus: SPR; binding amount divided by that of 04H1637-G1m/04L1610-lam1. For orientation: Surface plasmon resonance follows binding to a sensor surface in real time, without labels.

Assay [2] addresses T1, human FcγRIIb extracellular domain with …. The assay can be described thus: SPR; FcγRIIb at 1000 nM, bound amount per unit captured Ab.
Assay [3] addresses T2, human FcRn (human, UniProt P55899 24-290; P61769 21-119).
T2 construct: Prepared by the method of WO 2010/107110; also called hFcRn
Nature of the assay: SPR Biacore T200, Ab captured via Fab-lambda, pH 6.0, 25C, steady state.
Protocol: (§1) The interaction between the generated antibodies and human FcRn was analyzed by the following method using Biacore T200. 50 mM Na-Phosphate, 150 mM NaCl, 0.05% Tween20 (pH 6.0) was used as the running buffer, and the assay was performed at 25° C. For the sensor chip, Series S SA (GE Healthcare) chips onto which CaptureSelect Human Fab-lambda Kinetics Biotin Conjugate (Thermo Fisher Scientific) was immobilized were used. The antibodies of interest were captured onto these chips and FcRn diluted in the running buffer was allowed to interact with them. Chips were regenerated with 10 mM Glycine-HCl (pH 1.5) and 25 mM NaOH, and assay was performed by repeatedly capturing antibodies. The dissociation constant for FcRn of each antibody was calculated using the steady state model, using Biacore T200 Evaluation Software 2.0.

Assay [4] concerns the target T3, human FcγRIIIa F allotype extracellular domain with C-terminal His-tag (human, UniProt P08637 17-208).
T3 construct: extracellular domain; also called hFcγR IIIa F
The assay can be described thus: SPR; KD of 04H1637-G1m/04L1610-lam1 divided by KD of variant.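 Also: biacore T200 SPR at 25 °C, antibodies captured on anti-Fab-lambda SA chip with receptor as analyte, running buffer pH 7.4 for FcγRs and pH 6.0 for FcRn.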
Protocol: (§2) The interaction between the generated antibodies and human FcγRs was analyzed by the following method using Biacore T200. 50 mM Na-Phosphate, 150 mM NaCl, 0.05% Tween20 (pH 7.4) was used as the running buffer, and the assay was performed at 25° C. For the sensor chips, Series S SA (GE Healthcare) chips onto which CaptureSelect Human Fab-lambda Kinetics Biotin Conjugate (Thermo Fisher Scientific) was immobilized were used. The antibodies of interest were captured onto these chips and each FcγR diluted in the running buffer was allowed to interact with them. Chips were regenerated with 10 mM Glycine-HCl (pH 1.5) and 25 mM NaOH, and assay was performed by repeatedly capturing antibodies. The dissociation constants KD (mol/L) for FcγRs of each antibody were calculated using Biacore T200 Evaluation Software 2.0, using the 1:1 Langmuir binding model for FcγRIa and FcγRIIIa and the steady state affinity model for FcγRIIa. For FcγRIIb, the binding amount of FcγRIIb per unit amount of antibody was calculated by correcting the binding amount of FcγRIIb obtained from the sensorgram obtained by the measurement with the amount of antibody captured onto the chip surface.
as §1

The target of assay [5] is T4, human FcγRIa extracellular domain with C-terminal His-tag (human, UniProt P12314 16-292).
T4 construct: extracellular domain; also called hFcγR Ia; hFcγRIa
The assay is described as above.
Protocol: as §2, §1

For assay [6], the target named is T5, human FcγRIIa R allotype extracellular domain with C-terminal His-tag (human, UniProt P12318 34-217).
T5 construct: extracellular domain; also called hFcγR IIa R
T5 sequence (looked up): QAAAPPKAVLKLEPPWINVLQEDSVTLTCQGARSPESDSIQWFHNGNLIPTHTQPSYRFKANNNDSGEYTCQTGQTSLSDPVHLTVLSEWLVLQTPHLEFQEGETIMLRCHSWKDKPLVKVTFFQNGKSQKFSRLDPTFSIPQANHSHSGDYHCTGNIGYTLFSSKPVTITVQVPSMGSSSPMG
The description is as above.
Protocol: as §2, §1

Assay [7] addresses T6, human FcγRIIIa V allotype extracellular domain with C-terminal His-tag (human, UniProt P08637 17-208).
T6 construct: extracellular domain; also called hFcγR IIIa V
The description is as above.
Protocol: as §2, §1

Assay [8] concerns the target T2, human FcRn. Described as above.
Protocol: as §2, §1
Assay [9] concerns the target T7, human FcγRIIa H allotype extracellular domain with C-terminal His-tag (human, UniProt P12318 34-217).
T7 construct: extracellular domain; also called hFcγR IIa H
T7 sequence (looked up): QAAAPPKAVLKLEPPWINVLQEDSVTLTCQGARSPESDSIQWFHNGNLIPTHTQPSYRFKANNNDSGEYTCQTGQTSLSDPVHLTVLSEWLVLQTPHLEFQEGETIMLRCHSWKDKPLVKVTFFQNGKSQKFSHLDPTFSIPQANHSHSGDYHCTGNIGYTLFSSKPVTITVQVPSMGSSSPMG
The description is as above.
Protocol: as §2, §1

The target of assay [10] is T3, human FcγRIIIa F allotype extracellular …. The assay can be described thus: SPR Biacore T200, Ab captured via Fab-lambda, pH 7.4, 25C.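 Also: antibodies captured on a streptavidin chip carrying biotinylated anti-Fab-lambda, with each FcγR injected as analyte in phosphate buffer. KD fitted by 1:1 Langmuir or steady-state model depending on receptor.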
The target in assay [11] is T4, human FcγRIa extracellular domain with …. Described as above.
Assay [12] concerns the target T5, human FcγRIIa R allotype extracellular …. The assay is described as above.
Assay [13] addresses T6, human FcγRIIIa V allotype extracellular …. The assay is described as above.
Assay [14] concerns the target T7, human FcγRIIa H allotype extracellular …. The description is as above.

T2 sequence (P55899 24-290 limits assumed, chain 1 of 2): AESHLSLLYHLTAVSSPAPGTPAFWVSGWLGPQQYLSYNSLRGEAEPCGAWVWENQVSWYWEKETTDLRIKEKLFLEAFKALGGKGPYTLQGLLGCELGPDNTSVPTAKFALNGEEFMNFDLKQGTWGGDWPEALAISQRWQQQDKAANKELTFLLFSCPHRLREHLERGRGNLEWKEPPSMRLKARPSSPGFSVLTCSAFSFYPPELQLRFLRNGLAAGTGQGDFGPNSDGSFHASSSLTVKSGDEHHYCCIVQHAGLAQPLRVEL
T2 sequence (P61769 21-119 limits assumed, chain 2 of 2): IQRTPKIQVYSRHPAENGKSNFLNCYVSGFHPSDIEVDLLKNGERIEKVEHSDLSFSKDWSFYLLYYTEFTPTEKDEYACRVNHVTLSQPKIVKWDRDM
T4 sequence (P12314 16-292): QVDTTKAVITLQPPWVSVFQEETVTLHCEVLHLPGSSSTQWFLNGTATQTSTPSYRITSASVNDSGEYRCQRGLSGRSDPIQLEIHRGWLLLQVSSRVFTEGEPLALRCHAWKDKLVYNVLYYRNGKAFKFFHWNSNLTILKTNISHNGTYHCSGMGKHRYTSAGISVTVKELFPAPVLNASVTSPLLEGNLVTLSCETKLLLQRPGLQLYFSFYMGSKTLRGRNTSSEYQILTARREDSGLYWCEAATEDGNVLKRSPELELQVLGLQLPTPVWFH
T3 sequence (P08637 17-208): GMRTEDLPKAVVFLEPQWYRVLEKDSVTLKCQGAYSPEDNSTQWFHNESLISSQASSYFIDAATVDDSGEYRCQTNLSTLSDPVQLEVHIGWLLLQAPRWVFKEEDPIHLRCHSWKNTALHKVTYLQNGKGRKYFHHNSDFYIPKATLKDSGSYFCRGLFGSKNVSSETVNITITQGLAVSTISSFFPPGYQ
T6 sequence (P08637 17-208 F176V): as the sequence (P08637 17-208) above, with F160V counted along it

B1: 04H1654-KT461/04L1610-lam1//04H1656-HT443/04L1610-lam1 (antibody, human IgG1, lambda)
heavy 1: QVQLVESGGGVVQPGGSLRLSCAASGFTFSSKTMNWVRQAPGKGLEWVSSISTQSHYIYYARSVRGRFTISRDNAKNSLYLQMNSLRAEDTAVYYCARYGKREDMLWVFDYWGQGTLVTVSSASTKGPSVFPLAPSSKSTSGGTAALGCLVKDYFPEPVTVSWNSGALTSGVHTFPAVLQSSGLYSLSSVVTVPSSSLGTQTYICNVNHKPSNTKVDKRVEPKSCDKTHTCPPCPAPEFQWGPMVFLFPPKPKDVLMISRTPEVTCVVVDVSDEEPEVKFNWYVDGVEVHNAKTKPREEQYNATYRVVSVLPVLHQDWLNGKEYKCKVSNDALPAPEEKTISKAKGQPREPQVYTLPPSRKEMTKNQVSLTCLVKGFYPSDIAVEWESNGQPENNYKTTPPVLDSDGSFFLYSKLTVDKSRWQQGNVFSCSVMHEALHNHYTQKSLSLSP
heavy 2: QVQLVESGGGVVQPGGSLRLSCAASGFTFSSKTMNWVRQAPGKGLEWVSSISTQSHYIYYAESVRGRFTISRDNAKNSLYLQMNSLRAEDTAVYYCARYGAREDMLWVFDYWGQGTLVTVSSASTKGPSVFPLAPSSKSTSGGTAALGCLVKDYFPEPVTVSWNSGALTSGVHTFPAVLQSSGLYSLSSVVTVPSSSLGTQTYICNVNHKPSNTKVDKRVEPKSCDKTHTCPPCPAPELLAGPSVFLFPPKPKDVLMISRTPEVTCVVVDVSHEEPEVKFNWYVDGVEVHNAKTKPREEQYNATYRVVSVLPVLHQDWLNGKEYKCKVSNDALPAPEEETISKAKGQPREPQVYTLPPSREEMTKNQVSLTCLVKGFYPSDIAVEWESNGQPENNYKTTPPVLDSDGSFFLYSKLTVDKSRWQQGNVFSCSVMHEALHNHYTQESLSLSP
light: QSALTQPPSASGSPGQSVTISCEGPSTGVGDYNWVHWYQQHPGKAPKLMIYFTSKKPSGVPDRFSGSKSGNTASLTVSGLQAEDEADYYCQTYAAPLGPMFGGGTKLTVLGQPKAAPSVTLFPPSSEELQANKATLVCLISDFYPGAVTVAWKADSSPVKAGVETTTPSKQSNNKYAASSYLSLTPEQWKSHRSYSCQVTHEGSTVEKTVAPTECS
notes: Heterodimerized antibody
Usually Kd stands for the equilibrium constant for the complex coming apart. A higher Kd goes with lower affinity. With B1, the Relative binding amount in assay [1] was determined as 3.1. In assay [2], the Binding amount was 0.025. The equilibrium dissociation constant (Kd) with human FcRn [3] was determined as 1500 nM; in assay [10], 2.6 nM; in assay [11], 0.032 nM; in assay [12], 240 nM; in assay [13], 1.5 nM; in assay [14] it was 200 nM. The “Relative value to KD between G1m and hFcγRs” value in assay [4] came to 526; in assay [5], 1.5; in assay [6], 8.4; in assay [7], 156; in assay [9], 7.3. Moreover, the “Relative value to KD between G1m and hFcRn” value in the assay with human FcRn [8] is 0.9.

B2: 04H1654-KT461/04L1612-lam1//04H1656-HT443/04L1612-lam1 (antibody, human IgG1, lambda)
heavy 1: QVQLVESGGGVVQPGGSLRLSCAASGFTFSSKTMNWVRQAPGKGLEWVSSISTQSHYIYYARSVRGRFTISRDNAKNSLYLQMNSLRAEDTAVYYCARYGKREDMLWVFDYWGQGTLVTVSSASTKGPSVFPLAPSSKSTSGGTAALGCLVKDYFPEPVTVSWNSGALTSGVHTFPAVLQSSGLYSLSSVVTVPSSSLGTQTYICNVNHKPSNTKVDKRVEPKSCDKTHTCPPCPAPEFQWGPMVFLFPPKPKDVLMISRTPEVTCVVVDVSDEEPEVKFNWYVDGVEVHNAKTKPREEQYNATYRVVSVLPVLHQDWLNGKEYKCKVSNDALPAPEEKTISKAKGQPREPQVYTLPPSRKEMTKNQVSLTCLVKGFYPSDIAVEWESNGQPENNYKTTPPVLDSDGSFFLYSKLTVDKSRWQQGNVFSCSVMHEALHNHYTQKSLSLSP
heavy 2: QVQLVESGGGVVQPGGSLRLSCAASGFTFSSKTMNWVRQAPGKGLEWVSSISTQSHYIYYAESVRGRFTISRDNAKNSLYLQMNSLRAEDTAVYYCARYGAREDMLWVFDYWGQGTLVTVSSASTKGPSVFPLAPSSKSTSGGTAALGCLVKDYFPEPVTVSWNSGALTSGVHTFPAVLQSSGLYSLSSVVTVPSSSLGTQTYICNVNHKPSNTKVDKRVEPKSCDKTHTCPPCPAPELLAGPSVFLFPPKPKDVLMISRTPEVTCVVVDVSHEEPEVKFNWYVDGVEVHNAKTKPREEQYNATYRVVSVLPVLHQDWLNGKEYKCKVSNDALPAPEEETISKAKGQPREPQVYTLPPSREEMTKNQVSLTCLVKGFYPSDIAVEWESNGQPENNYKTTPPVLDSDGSFFLYSKLTVDKSRWQQGNVFSCSVMHEALHNHYTQESLSLSP
light: QSALTQPPSASGSPGQSVTISCEGPSTGVGDYTYVHWYQQHPGKAPKLMIYFTSKKPSGVPDRFSGSKSGNTASLTVSGLQAEDEADYYCQTYAAPLGPMFGGGTKLTVLGQPKAAPSVTLFPPSSEELQANKATLVCLISDFYPGAVTVAWKADSSPVKAGVETTTPSKQSNNKYAASSYLSLTPEQWKSHRSYSCQVTHEGSTVEKTVAPTECS
notes: Heterodimerized antibody
In assay [1], B2 gave a Relative binding amount of 3.1. In assay [2], the Binding amount stood at 0.025. Also, the Kd in the assay with human FcRn [3] was 1600 nM; in [10], 2.6 nM; in [11] it was 0.039 nM; in assay [12], 250 nM; in assay [13] it was 1.5 nM; in [14], 210 nM. In addition, the “Relative value to KD between G1m and hFcγRs” value in assay [4] worked out at 537; in [5], 1.3; in [6], 8.2; in [7], 159; in assay [9], 7.1. Further, the “Relative value to KD between G1m and hFcRn” value in the assay with human FcRn [8] came to 0.8.

For the origin of these results see patent US20260022175A1 (Chugai, published 2026).
